# US20170305994A1 (Novo Nordisk, published 2017)
# Read-outs that look alike come from different tables or passages of the source.
# T1: human DR3 (full length, on cells) (human, UniProt Q93038 25-417)
# T1 construct: also called hDR3; Death Receptor 3
# T1 sequence: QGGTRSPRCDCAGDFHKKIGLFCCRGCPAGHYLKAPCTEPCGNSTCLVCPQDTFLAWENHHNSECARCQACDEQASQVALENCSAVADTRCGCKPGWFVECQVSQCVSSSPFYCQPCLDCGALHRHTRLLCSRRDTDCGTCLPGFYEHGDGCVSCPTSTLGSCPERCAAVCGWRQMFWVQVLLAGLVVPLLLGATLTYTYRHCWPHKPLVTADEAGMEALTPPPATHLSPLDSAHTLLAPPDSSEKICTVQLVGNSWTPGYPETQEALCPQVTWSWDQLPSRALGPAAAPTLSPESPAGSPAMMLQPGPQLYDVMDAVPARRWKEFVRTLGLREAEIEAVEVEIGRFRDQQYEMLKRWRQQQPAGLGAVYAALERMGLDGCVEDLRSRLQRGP
# T2: human DR3 with the death domain deleted (ΔM339-P417 of SEQ ID NO:1), expressed on CHOK1SV cells (human, UniProt Q93038 25-338)
# T2 construct: also called truncated DR3; hDR3 expressing CHO cells
# T2 sequence: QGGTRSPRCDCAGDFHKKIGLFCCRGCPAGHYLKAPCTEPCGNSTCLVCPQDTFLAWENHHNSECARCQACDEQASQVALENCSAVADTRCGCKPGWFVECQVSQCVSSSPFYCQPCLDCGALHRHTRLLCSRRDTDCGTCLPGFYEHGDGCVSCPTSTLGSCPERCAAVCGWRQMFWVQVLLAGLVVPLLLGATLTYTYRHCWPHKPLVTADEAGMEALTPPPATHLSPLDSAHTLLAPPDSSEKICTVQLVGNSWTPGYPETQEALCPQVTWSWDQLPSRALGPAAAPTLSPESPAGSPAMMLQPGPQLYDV
# Key:
# DR3 (CRD1)-Fc [1] = target: T3, DR3 (CRD1)-Fc (human); assay: SPR, Biacore T100, DR3-Fc fusion immobilised
# T3 construct: Amino acids 25-71 of DR3 fused to the Fc domain of human IgG4; purified to exclude oligomers (mainly dimeric)
# Source text: (§1) The extracellular moiety of DR3 is located at the aminoterminal portion of DR3 and is comprised of four TNF receptor cysteine-rich domains. Several fusion proteins were expressed and purified which contained parts of the extracellular domain of DR3 of increasing length fused to the Fc domain of a human IgG4. The DR3 proteins used for SPR analysis had been purified to exclude oligomerized material. These proteins were immobilized to a CM5 sensor chip using amine coupling chemistry. Binding of anti-DR3 antibodies termed 0070, 0072, 0073 and 0076, to the different DR3-Fc fusion proteins was tested by means of plasmon surface binding measurements on a Biacore T100 instrument (GE Healthcare). All of these antibodies inhibit binding of TL1A to DR3 in a FACS assay. These 4 antibodies bound to recombinant DR3 (CRD1)-Fc protein that contained only the aminoterminal CRD (SEQ ID NO:2) comprised of amino acids 25-71 of DR3.
# [2] = target: T1, human DR3 (full length, on cells); assay: flow cytometry on CD3/CD28-stimulated human CD4+ T cells
# Protocol: Human CD4-positive T cells were purified from Buffy coats using CD4 Rosettesep (Stem cell technologies) and Histopaque (Sigma). T cells were stimulated with CD3/CD28 Dynabeads (Invitrogen) at a 1:1 ratio for 4 days in T75 flask at 2 mio CD4 T cells/ml in RPMI supplemented with 10% fcs. Beads were removed using a magnet, and cells were washed twice before titrating in antibodies on 500.000 cells/staining. Binding saturation was measured after incubation with goat-anti-mouse phycoerythrin (Jackson ImmunoResearch) and cells were subsequently analysed by flow cytometry on a BD LSRII. All antibodies reached saturation at 3 μg/ml.
# DR3 (CRD1)-Fc [3] = target: T3, DR3 (CRD1)-Fc; assay: SPR
# Source text: as §1
# The same analysis was also performed for some of the Fab fragments.
# [4] = target: T1, human DR3 (full length, on cells); assay: cell-based or functional assay
# [5] = target: T1, human DR3 (full length, on cells); assay: cell-based or functional assay; remark: listed apart in the source
# [6] = target: T2, human DR3 with the death domain deleted …; assay: flow cytometry competition: Fab vs TL1A on hDR3-expressing CHO cells
# DR3 (ECD)-Fc = target: T4, DR3 (ECD)-Fc (human); assay: HX-MS with hDR3 ECD-Fc
# T4 construct: ECD of DR3, a linker with a TEV cleavage site and the Fc part of human IgG4; dimeric fraction used; also called DR3-Fc; hDR3-Fc
# Protocol: The Leap robot was equipped with two temperature controlled stacks maintained at 20° C. for buffer storage and HX reactions and maintained at 2° C. for storage of protein and quench solution, respectively. The Waters HDX system furthermore contained a temperature controlled chamber holding the pre- and analytical columns, and the LC tubing and switching valves at 1° C. A separately temperature controlled chamber holds the pepsin column at 25° C. […] The resulting peptides were trapped and desalted on a VanGuard pre-column BEH C18 1.7 μm (2.1×5 mm (Waters Inc.)). Subsequently, the valves were switched to place the pre-column inline with the analytical column, UPLC-BEH C18 1.7 μm (1×100 mm (Waters Inc.)), and the peptides separated using a 9 min gradient of 10-40% B delivered at 200 μl/min from the nanoAQUITY UPLC system (Waters Inc.). The mobile phases consisted of A: 0.1% formic acid and B: 0.1% formic acid in CH₃CN. The ESI MS data, and the separate elevated energy (MS^E) experiments were acquired in positive ion mode using a Synapt G2 mass spectrometer (Waters Inc.).
# All HX reactions were carried out at 20° C. and contained […] hDR3 in the absence or presence of […] Fab thus giving a 5 fold molar excess of Fab. […]
# [7] = target: T1, human DR3 (full length, on cells); assay: cell-based or functional assay; remark: listed apart in the source
# [8] = target: T1, human DR3 (full length, on cells); assay: cell-based or functional assay; remark: listed apart in the source
# [9] = target: T1, human DR3 (full length, on cells); assay: flow cytometry on IL-12/IL-18/TL1A activated CD4+ T cells, 1 µg/ml
# Protocol: (§2) Buffy Coats were obtained from normal healthy volunteers from Copenhagen University Hospital. CD4+ T cells were isolated through magnetic bead separation. Cells were activated with 2 ng/ml IL-12, 50 ng/ml IL-18 and 100 ng/ml TL1A (Flag-HIS-TEV-TL1A-produced at Novo Nordisk A/S) and cultured for 5 days. On day 5 cells were stained with 10, 5, 1, 0.5, 0.1 or 0.0001 μg/ml of the anti-DR3 mAb clones 0072, 0073, or 0077, or with Fab fragment clones 0087, 0088 and 0091. A secondary PE conjugated goat-anti-mouse (H+L) was used for detection.
# The greater observed MFI values of IgG treated compared with Fab treated cells was expected since the secondary (detecting) antibody (anti-IgG heavy and light chain) bound to both Fab and Fc parts of the full-length IgG antibody clones, but only to Fab parts of Fab clones (Table 9).
# [10] = target: T1, human DR3 (full length, on cells); assay: as above; remark: listed apart in the source
# Protocol: as §2
# as §2, with “Material and Methods: Buffy” for “Buffy”, “Copenhagen” for “Copenhagen University”, “0088 or” for “0088 and”, “detection. Samples were in duplicate. Staining intensity was evaluated by FACS.” for “detection.”
binder,measurement,setting,value
"0070 (murine mAb purified from hybridoma 27F16A1) (antibody, V domains shown, murine IgG1, kappa; also called 0083) VH: EVQLVESGGDFVKPGGSLKLSCAASGFTFNNYGMSWVRQTPDKRLEWVAAISSGVTYTYYPDTVKGRFTISRDNAKNTLYLHMSSLKSEDTAMYYCGRHDDYGNHFDYWGQGTTLTVSS VL: DIVMTQSPSSLAMSLGQRVTMNCKSSQSLLNSHNQKNYLAWYQQKPGQSPKLLVYFASSRESGVPDRFIGSGSGTDFTLTISSVQAEDLADYFCQQHYSTPFTFGSGTKLEIKR",binding result,DR3 (CRD1)-Fc [1],binds
same,Median Fluorescent Intensity,[2],2330
same,Staining index (MFI Ab/MFI Isotype),[2],10.5
same,saturation concentration,[2],3 µg/mL
"0152 (chimeric Fab of 50F191, human IgG4 constant domain, hinge Cys->Ser) (Fab, V domains shown, IgG4-Ser, chimeric) VH: EVQLVESGGGLVEPGGSLKLSCAASGFTFSTYAMSWVRQSPEKRLEWVAEISSGDSYTYYPDIVTGRFTISRDDAKNTLFLEMSSLRSEDTAIYYCVRDQDYRYDGYYAMDHWGQGTSVTVSS VL: DIVLTQSPASLAVSLGQRATISCRASESVEHYGTSLMQWYQQKPGQPPKLLIYAASNVESGVPARFSGRGSGPDFSLNIHPVEEDDIAMYFCQQSRRIPWTFGGGTKLEIKR",binding result,DR3 (CRD1)-Fc [3],binds
same,"IC50 at 40 ng/ml TL1A, I5 reporter cells",[4],2100 pM
same,"IC50, TNFalpha inhibition, TL1A-activated CD4+ T cells, donor 1",[5],183 pM
same,"IC50, TNFalpha inhibition, average (n 1)",[5],183 pM
same,"max % inhibition of TNFalpha, donor 1",[5],73.5%
same,IC50,[6],512 pM
same,max percentage inhibition,[6],53%
"0163 (chimeric Fab of 45F187, human IgG4 constant domain, hinge Cys->Ser) (Fab, V domains shown, IgG4-Ser, chimeric; also called 0150) VH: EVQLVESGGGLVQPGGSLRLSCATSGFTFTNYYMAWVRKPPGKTLEWLGFMRNIVNGYTTDYSGSVEGRFTISRDNSQSILYLQMNALRPEDSATYYCARDIGYRYDGGGYGLDYWGQGTSVTVSS VL: DIQMTQSPASLSASVGETVTLTCRASGNIHNYLTWYQQKQGKSPQLLVYNVKTLADGVSSRFSGSGSGTQFSLKINSLQPEDFGSYYCQHFWTTPYTFGGGTKLEIRR",binding result,DR3 (ECD)-Fc,binds
"0072 (murine mAb purified from hybridoma 27F44A2) (antibody, mouse IgG1, V domains shown, murine IgG1, kappa; also called 0084) VH: EVKLVESGGGLVKPGGSLKLSCSASGFAFSNYDMSWVRQTPEKRLEWVAAFSSDGYTFYPDSLKGRFTISRDNARNTLYLQMSSLGSEDTALYCCARHADYANYPVMDYWGQGTSVTVSS VL: DIVLAQSPASLLVSLGQRATISCRASKSVSTSGYSYMHWYQQKPGQPPKLLIYLASNLESGVPARFSGSGSGTDFTLNIHPVEEEDAATYYCQHSRELPLTFGAGTMLELKR","fold response, DR3 reporter, 40 ng/ml TL1A + 0.000256 microg/ml",[7],33.8 fold
same,"fold response, DR3 reporter, 40 ng/ml TL1A + 0.00128 microg/ml",[7],37.2 fold
same,"fold response, DR3 reporter, 40 ng/ml TL1A + 0.0064 microg/ml",[7],40.3 fold
same,"fold response, DR3 reporter, 40 ng/ml TL1A + 0.032 microg/ml",[7],41 fold
same,"fold response, DR3 reporter, 40 ng/ml TL1A + 0.08 microg/ml",[7],38.4 fold
same,"fold response, DR3 reporter, 40 ng/ml TL1A + 4 microg/ml",[7],34 fold
same,"fold response, DR3 reporter, 40 ng/ml TL1A + 20 microg/ml",[7],27.8 fold
same,"fold response, DR3 reporter, 40 ng/ml TL1A + 100 microg/ml",[7],18.4 fold
same,"fold response, DR3 reporter, no TL1A, 0.000256 microg/ml",[7],1.1 fold
same,"fold response, DR3 reporter, no TL1A, 0.00128 microg/ml",[7],2.2 fold
same,"fold response, DR3 reporter, no TL1A, 0.0064 microg/ml",[7],9.3 fold
same,"fold response, DR3 reporter, no TL1A, 0.032 microg/ml",[7],18.6 fold
same,"fold response, DR3 reporter, no TL1A, 0.08 microg/ml",[7],25.1 fold
same,"fold response, DR3 reporter, no TL1A, 4 microg/ml",[7],21.1 fold
same,"fold response, DR3 reporter, no TL1A, 20 microg/ml",[7],16.3 fold
same,"fold response, DR3 reporter, no TL1A, 100 microg/ml",[7],9.2 fold
same,"fold response, DR3 reporter, 40 ng/ml TL1A + 0.1 microg/ml",[8],29.6 fold
same,"fold response, DR3 reporter, 40 ng/ml TL1A + 1 microg/ml",[8],24.8 fold
same,"fold response, DR3 reporter, 40 ng/ml TL1A + 10 microg/ml",[8],23.3 fold
same,"fold response, DR3 reporter, 40 ng/ml TL1A + 100 microg/ml",[8],13.6 fold
same,"fold response, DR3 reporter, no TL1A, 0.1 microg/ml",[8],20.6 fold
same,"fold response, DR3 reporter, no TL1A, 1 microg/ml",[8],19.8 fold
same,"fold response, DR3 reporter, no TL1A, 10 microg/ml",[8],17.3 fold
same,"fold response, DR3 reporter, no TL1A, 100 microg/ml",[8],8.5 fold
same,binding result,DR3 (CRD1)-Fc [1],binds
same,Median Fluorescent Intensity,[2],2650
same,Staining index (MFI Ab/MFI Isotype),[2],11.9
same,saturation concentration,[2],3 µg/mL
same,MFI,[9],1300 MFI
same,MFI,[10],1300 MFI
